Series [1] deals with RapZ 1-279 T278G L279G (T25 fusion). The series can be described thus: BACTH assay (self-interaction; β-galactosidase activity). The following applies: bottom panel; same RapZ1-279 variant fused to T18 and to T25; mean ± SD, n ≥ 2; parent: est. 4100; read off a plot.
Series [2] has as its target T1, RapZ1-279 (purified) del280-284 (Escherichia coli) (UniProt P0A894).
T1 sequence: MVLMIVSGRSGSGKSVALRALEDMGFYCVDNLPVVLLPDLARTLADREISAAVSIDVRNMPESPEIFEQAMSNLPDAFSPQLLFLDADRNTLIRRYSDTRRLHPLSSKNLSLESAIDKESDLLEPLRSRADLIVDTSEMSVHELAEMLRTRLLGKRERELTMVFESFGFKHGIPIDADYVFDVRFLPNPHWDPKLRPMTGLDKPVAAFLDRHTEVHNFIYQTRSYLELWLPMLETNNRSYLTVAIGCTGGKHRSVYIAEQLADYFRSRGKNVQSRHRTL
As to the kind of experiment: EMSA. The conditions noted are these: EMSA on non-denaturing PAA gels, phospho-imaging; buffer, pH and temperature not given here (as in Göpel 2016; Durica-Mitic and Görke 2019).

The target in series [3] is T2, RapZCTD (Escherichia coli) (UniProt P0A894).
T2 sequence: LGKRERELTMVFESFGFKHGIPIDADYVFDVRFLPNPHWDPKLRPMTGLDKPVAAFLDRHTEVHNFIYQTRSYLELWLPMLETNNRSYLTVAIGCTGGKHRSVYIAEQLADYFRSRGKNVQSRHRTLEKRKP
As to the kind of experiment: EMSA. The conditions noted are these: EMSA on non-denaturing PAA gels, phospho-imaging; buffer, pH and temperature not given here (as in Göpel 2016; Durica-Mitic and Görke 2019).

Series [4] concerns the target T3, RapZCTD lacking the 5 C-terminal residues del280-284 (Escherichia coli) (UniProt P0A894).
T3 sequence: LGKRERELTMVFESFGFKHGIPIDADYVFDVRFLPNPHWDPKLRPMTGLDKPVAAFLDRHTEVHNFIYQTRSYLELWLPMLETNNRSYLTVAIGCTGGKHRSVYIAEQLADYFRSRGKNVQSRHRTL
As to the kind of experiment: EMSA. The conditions noted are these: EMSA on non-denaturing PAA gels, phospho-imaging; buffer, pH and temperature not given here (as in Göpel 2016; Durica-Mitic and Görke 2019).

Series [5] addresses T4, RapZCTDquad K270A;K281A;R282A;K283A (Escherichia coli) (UniProt P0A894).
T4 sequence: T2 sequence with K118A, K129A, R130A, K131A
As to the kind of experiment: EMSA. The following applies: EMSA on non-denaturing PAA gels, phospho-imaging; buffer, pH and temperature not given here (as in Göpel 2016; Durica-Mitic and Görke 2019).

Series [6] concerns the target T5, RapZquad (purified) K270A;K281A;R282A;K283A (Escherichia coli) (UniProt P0A894).
T5 sequence: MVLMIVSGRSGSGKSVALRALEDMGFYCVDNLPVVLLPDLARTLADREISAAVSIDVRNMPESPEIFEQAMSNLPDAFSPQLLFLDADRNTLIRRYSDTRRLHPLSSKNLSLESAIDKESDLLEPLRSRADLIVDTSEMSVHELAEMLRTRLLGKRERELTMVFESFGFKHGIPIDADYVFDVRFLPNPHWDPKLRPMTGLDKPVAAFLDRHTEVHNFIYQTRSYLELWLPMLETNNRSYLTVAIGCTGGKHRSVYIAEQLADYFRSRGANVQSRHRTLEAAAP
As to the kind of experiment: EMSA. The conditions noted are these: EMSA on non-denaturing PAA gels, phospho-imaging; buffer, pH and temperature not given here (as in Göpel 2016; Durica-Mitic and Görke 2019).

The values below come from publication PMC7430671.

Changes are numbered by the printed parent chain.

Sequence of RapZ_(1–279), BACTH fusion (P0A894 whole entry T278G/L279G, looked up, the tested form may be a part): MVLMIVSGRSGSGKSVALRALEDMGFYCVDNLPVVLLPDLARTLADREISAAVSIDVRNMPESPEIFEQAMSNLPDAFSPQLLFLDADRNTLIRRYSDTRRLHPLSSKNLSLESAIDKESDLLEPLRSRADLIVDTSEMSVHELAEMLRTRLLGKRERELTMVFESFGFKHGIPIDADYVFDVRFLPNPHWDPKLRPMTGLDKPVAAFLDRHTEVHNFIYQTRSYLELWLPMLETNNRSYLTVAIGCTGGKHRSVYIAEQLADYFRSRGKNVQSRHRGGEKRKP

Take “RapZ_(1–279), BACTH fusion (from UniProt P0A894) T278G; L279G”: the response in series [1] worked out at 3600 Miller units.
For the substance “GGGAGAGUAGAUGCUCAUUCCAUCUCUUAUGUUCGCCUUAGUGCCUCAUAAACUCCGGAAUGACGCAGAGCCGUUUACGGUGCUUAUCGUCCACUGACAGAUGUCGCUUAUGCCUCAUCAGACACCAUGGACACAACGUUGAGUGAAGCACCCACUUGUUGUCAUACAGACCUGUUUUAACGCCUGCUCCGUAAUAAGAGCAGGCGUUUUUUU [GlmZ sRNA (in vitro transcript)]”, the binding entry is “binds more weakly” in series [2]; “binds” in series [3]; “no binding” in series [4]; “no binding” in series [5]; “no binding” in series [6].
